Measurements from US20210261648A1 (published 2021).
Residue numbers refer to the chain shown, from its start. Names and notes keep the numbering of the source.

B1: IL6R-2B253/IL6R-L (antibody, human IgG1, kappa)
heavy: QVQLQESGPGLVKPSETLSLTCAVSGHSISHDHAWSWVRQPPGEGLEWIGFISYSGITNYNPSLQGRVTISRDNSKNTLYLQMNSLRAEDTAVYYCARSLARTTAMDYWGEGTLVTVSSASTKGPSVFPLAPSSKSTSGGTAALGCLVKDYFPEPVTVSWNSGALTSGVHTFPAVLQSSGLYSLSSVVTVPSSSLGTQTYICNVNHKPSNTKVDKKVEPKSCDKTHTCPPCPAPDLLGGDSVFLFPPKPKDTLMISRTPEVTCVVVDVSHEDPEVKFNWYVDGVEVHNAKTKPREEQYNSTYRVVSVLTVLHQDWLNGKEYKCKMSNKALPAPIEKTISKAKGQPREPQVYTLPPSRDELTKNQVSLTCLVKGFYPSDIAVEWESNGQPENNYKTTPPVLDSDGSFFLYSKLTVDKSRWQQGNVFSCSVMHEALHNHYTQESLSLSP
light: not shown
B2: IL6R-BP206/IL6R-L (antibody, human IgG1, kappa)
heavy: B1 heavy with P273G, M325V, A332R
light: not shown
B3: IL6R-BP209/IL6R-L (antibody, human IgG1, kappa)
heavy: B1 heavy with D235E, G239D, H270D, P273G, M325V, K328A, A332R
light: not shown
B4: IL6R-BP203/IL6R-L (antibody, human IgG1, kappa)
heavy: B1 heavy with D235E, G239D, P273G, M325V, A332R
light: not shown
B5: IL6R-BP211/IL6R-L (antibody, human IgG1, kappa)
heavy: B1 heavy with H270D, P273G, M325V, K328A, A332R
light: not shown
B6: IL6R-BP213/IL6R-L (antibody, human IgG1, kappa)
heavy: B1 heavy with H270D, P273G, M325V, A332R
light: not shown
B7: IL6R-BP199/IL6R-L (antibody, human IgG1, kappa)
heavy: B1 heavy with M325V, K328D, A332R
light: not shown
B8: IL6R-BP207/IL6R-L (antibody, human IgG1, kappa)
heavy: B1 heavy with M325V, A332R
light: not shown
B9: IL6R-BP564/IL6R-L (antibody, human IgG1, kappa)
heavy: B1 heavy with D235E, G239D, H270E, P273G, E274D, Y298D, M325V, A332R
light: not shown
notes: Anti-human IL-6R IgG1; alterations introduced into IL6R-B3 (G1d with K439E)
B10: IL6R-BP562/IL6R-L (antibody, human IgG1, kappa)
heavy: B1 heavy with D235E, G239D, H270D, P273G, E274D, Y298D, M325V, A332R
light: not shown
notes: as for B9
B11: IL6R-BP567/IL6R-L (antibody, human IgG1, kappa)
heavy: B1 heavy with V266I, S269A, H270E, P273G, Y298D, M325V
light: not shown
notes: as for B9
B12: IL6R-BP560/IL6R-L (antibody, human IgG1, kappa)
heavy: B1 heavy with D235E, S269G, H270E, P273G, Y298D, M325V, A332R
light: not shown
notes: as for B9
B13: IL6R-BP568/IL6R-L (antibody, human IgG1, kappa)
heavy: B1 heavy with V266I, S269A, H270E, P273G, M325V
light: not shown
notes: as for B9
B14: GpH7-AP001/GpH7-BP063/GpL16-k0 (antibody, human IgG1, kappa, name in EU numbering)
heavy 1: QVQLVQSGAEVKKPGASVTVSCKASGYTFTDYEMHWIRQPPGEGLEWIGAIDPKTGDTAYSESFQDRVTLTADKSTSTAYMELSSLTSEDTAVYYCTRFYSYTYWGQGTLVTVSSASTKGPSVFPLAPSSKSTSGGTAALGCLVKDYFPEPVTVSWNSGALTSGVHTFPAVLQSSGLYSLSSVVTVPSSSLGTQTYICNVNHKPSNTKVDKKVEPKSCDKTHTCPPCPAPELLGGDSVFLFPPKPKDTLMISRTPEVTCVVVDVSHEDPEVKFNWYVDGVEVHNAKTKPREEQYNSTYRVVSVLTVLHQDWLNGKEYKCKVSNKALPAPIEKTISKAKGQPREPQVYTLPPSRKELTKNQVSLTCLVKGFYPSDIAVEWESNGQPENNYKTTPPVLDSDGSFFLYSKLTVDKSRWQQGNVFSCSVMHEALHNRYTQKSLSLSP
heavy 2: not shown
light: DIVMTQSPLSLPVTPGEPASISCQASESLVHSNRNTYLHWYLQKPGQSPQLLIYKVSNRFSGVPDRFSGSGSGTDFTLKISRVEAEDVGVYYCSQNTHVPPTFGQGTKVEIERTVAAPSVFIFPPSDEQLKSGTASVVCLLNNFYPREAKVQWKVDNALQSGNSQESVTEQDSKDSTYSLSSTLTLSKADYEKHKVYACEVTHQGLSSPVTKSFNRGEC
notes: Heterodimerized anti-glypican 3 IgG1
B15: GpH7-AP001/GpH7-BP069/GpL16-k0 (antibody, human IgG1, kappa, name in EU numbering)
heavy 1: B14 heavy 1
heavy 2: not shown
light: B14 light
notes: as for B14
B16: IL6R-BP561/IL6R-L (antibody, human IgG1, kappa)
heavy: B1 heavy with G239D, H270D, P273G, E274D, Y298D, M325V, A332R
light: not shown
notes: as for B9

The binders below were run against T1, FcγRIa extracellular domain with C-terminal His tag (human, UniProt P12314 16-292) (assay: SPR, captured antibody, FcgR analyte).
T1 construct: also called FcgRIa
T1 sequence (P12314 16-292): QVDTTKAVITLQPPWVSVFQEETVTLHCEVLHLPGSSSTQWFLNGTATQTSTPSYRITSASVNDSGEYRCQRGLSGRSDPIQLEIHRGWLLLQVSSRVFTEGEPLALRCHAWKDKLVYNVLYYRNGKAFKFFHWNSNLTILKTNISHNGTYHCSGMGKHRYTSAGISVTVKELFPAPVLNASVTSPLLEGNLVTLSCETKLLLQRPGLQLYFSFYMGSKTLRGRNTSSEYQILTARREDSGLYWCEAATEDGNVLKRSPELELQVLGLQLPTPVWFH
Procedure: (§1) Relative binding activities were calculated for the results of analyzing interactions with the respective FcγRs according to the following method.

Binder	relative binding activity
B1	155 relative (IL6R-BF648/IL6R-L = 100)
B2	101 relative (IL6R-BF648/IL6R-L = 100)
B3	68 relative (IL6R-BF648/IL6R-L = 100)
B4	35 relative (IL6R-BF648/IL6R-L = 100)
B5	128 relative (IL6R-BF648/IL6R-L = 100)
B6	118 relative (IL6R-BF648/IL6R-L = 100)
B7	112 relative (IL6R-BF648/IL6R-L = 100)
B8	74 relative (IL6R-BF648/IL6R-L = 100)

Each binder was assayed against T2, FcγRIIa type H extracellular domain with C-terminal His tag (human, UniProt P12318 34-217) (assay: SPR, captured antibody, FcgR analyte).
T2 construct: extracellular domain; also called FcgRIIaH; FcγRIIa H
T2 sequence (looked up): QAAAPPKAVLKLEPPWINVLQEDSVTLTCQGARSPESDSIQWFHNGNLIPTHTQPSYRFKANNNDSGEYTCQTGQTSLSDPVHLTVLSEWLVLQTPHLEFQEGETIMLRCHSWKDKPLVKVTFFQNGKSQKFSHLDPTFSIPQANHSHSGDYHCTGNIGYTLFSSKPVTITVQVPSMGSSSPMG
Procedure: as §1

Binder	relative binding activity
B1	207 relative (IL6R-BF648/IL6R-L = 100)
B3	267 relative (IL6R-BF648/IL6R-L = 100)
B4	255 relative (IL6R-BF648/IL6R-L = 100)
B6	123 relative (IL6R-BF648/IL6R-L = 100)

These binders were tested against T3, FcγRIIb extracellular domain with C-terminal His tag (human, UniProt P31994 43-217) (assay: SPR, captured antibody, FcgR analyte).
T3 construct: extracellular domain; also called FcgRIIb
T3 sequence (looked up): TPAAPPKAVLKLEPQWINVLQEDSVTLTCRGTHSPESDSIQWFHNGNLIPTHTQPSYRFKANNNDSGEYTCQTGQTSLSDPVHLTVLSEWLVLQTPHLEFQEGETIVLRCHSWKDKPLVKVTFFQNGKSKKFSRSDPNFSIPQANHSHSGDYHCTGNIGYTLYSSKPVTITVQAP
Procedure: as §1

Binder	relative binding activity
B1	156 relative (IL6R-BF648/IL6R-L = 100)
B2	168 relative (IL6R-BF648/IL6R-L = 100)
B3	186 relative (IL6R-BF648/IL6R-L = 100)
B4	185 relative (IL6R-BF648/IL6R-L = 100)
B5	165 relative (IL6R-BF648/IL6R-L = 100)
B6	169 relative (IL6R-BF648/IL6R-L = 100)
B7	144 relative (IL6R-BF648/IL6R-L = 100)
B8	124 relative (IL6R-BF648/IL6R-L = 100)

These binders were tested against T4, FcγRIIIa type V extracellular domain with C-terminal His tag (human, UniProt P08637 17-208) (assay: SPR, captured antibody, FcgR analyte).
T4 construct: extracellular domain; also called FcgRIIIaV; FcγRIIIaV
T4 sequence (P08637 17-208 F176V): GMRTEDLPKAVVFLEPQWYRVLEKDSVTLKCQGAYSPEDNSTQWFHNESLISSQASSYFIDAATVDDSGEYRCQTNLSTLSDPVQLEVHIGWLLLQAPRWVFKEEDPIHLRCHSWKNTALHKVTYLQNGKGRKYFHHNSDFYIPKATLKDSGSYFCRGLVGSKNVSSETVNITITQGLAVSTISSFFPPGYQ
Procedure: as §1

Binder	relative binding activity
B1	126 relative (IL6R-BF648/IL6R-L = 100)
B2	92 relative (IL6R-BF648/IL6R-L = 100)
B3	153 relative (IL6R-BF648/IL6R-L = 100)
B4	88 relative (IL6R-BF648/IL6R-L = 100)
B5	87 relative (IL6R-BF648/IL6R-L = 100)
B6	100 relative (IL6R-BF648/IL6R-L = 100)
B7	103 relative (IL6R-BF648/IL6R-L = 100)
B8	97 relative (IL6R-BF648/IL6R-L = 100)

The binders below were run against T5, FcγRIIb extracellular domain with C-terminal His tag (human, UniProt P31994 43-217) (assay: SPR; KD for FcγRIIaH divided by KD for FcγRIIb).
T5 construct: extracellular domain; For crystallography it was expressed with kifunensine and trimmed with Endo F1; also called FcgRIIb; FcγRIIb extracellular region; not shown: His tag attached to the C terminus
T5 sequence (looked up): T3 sequence (looked up)

Binder	KD(IIaH)/KD(IIb)
B9	454
B10	466
B11	1230
B12	168
B13	748

These binders were tested against T5, FcγRIIb extracellular domain with … (assay: SPR; KD for FcγRIIaR divided by KD for FcγRIIb).

Binder	KD(IIaR)/KD(IIb)
B9	26.2
B10	29
B11	64.4
B12	22.8
B13	46.1

The binders below were run against T5, FcγRIIb extracellular domain with … (assay: SPR binding amounts, FcgRIIb divided by FcgRIIaR).

Binder	amount binding to FcgRIIb/amount binding to FcgRIIaR
B14	1.7
B15	2.2

These binders were tested against T6, FcγRIa extracellular domain with C-terminal His tag (human, UniProt P12314 16-292) (assay: SPR (Biacore), antibody captured, FcγR as analyte).
T6 construct: also called FcgRIa; not shown: His tag attached to the C terminus
T6 sequence (P12314 16-292): as the sequence (P12314 16-292) above

Binder	Kd [nM]
B9	31
B10	25
B11	0.21
B16	9.4
B12	5.6
B13	0.19

Each binder was assayed against T5, FcγRIIb extracellular domain with … (assay: SPR (Biacore), antibody captured, FcγR as analyte).

Binder	Kd [nM]
B9	22
B10	24
B11	14
B16	18
B12	180
B13	15

Molecular target: T7, FcγRIIa type R extracellular domain with C-terminal His tag (human, UniProt P12318 34-217)
T7 chain: T2 sequence (looked up) with H134R
Test: SPR (Biacore), antibody captured, FcγR as analyte

Binder	Kd [nM]
B9	580
B10	680
B11	890
B16	510
B12	4200
B13	680

These binders were tested against T5, FcγRIIb extracellular domain with … (assay: SPR; KD of IL6R-B3/IL6R-L divided by KD of the variant).

Binder	KD(IIb) of the parent polypeptide/KD(IIb) of the altered polypeptide
B9	141
B10	131
B11	225
B12	16.8
B13	211

Molecular target: T7, FcγRIIa type R extracellular domain …
Test: as above

Binder	KD(IIaR) of the parent polypeptide/KD(IIaR) of the altered polypeptide
B9	1.9
B10	1.6
B11	1.2
B12	0.3
B13	1.6

These binders were tested against T5, FcγRIIb extracellular domain with … (assay: SPR binding amount, relative to GpH7-AP001/GpH7-BF648/GpL16-k0).

Binder	binding amount to FcgRIIb when that of GpH7-AP001/GpH7-BF648 is defined as 100
B14	69
B15	72

Molecular target: T7, FcγRIIa type R extracellular domain …
Test: as above

Binder	binding amount to FcgRIIaR when that of GpH7-AP001/GpH7-BF648 is defined as 100
B14	161
B15	131
